Laboratory results reported in US20070167369A1 (KYUNGPOOK NATIONAL UNIVERSITY INDUSTRY ACADEMIC COOPERATION …, published 2007).

B1: βig-h3 D-IV (recombinant protein containing the fourth fas-1 domain of human βig-h3) (ligand)
chain: MGTVMDVLKGDNRFSMLVAAIQSAGLTETLNREGVYTVFAPTNEAFRALPPRERSRLLGDAKELANILKYHIGDEILVSGGIGALVRLKSLQGDKLEVSLKNNVVSVNKEPVAEPDIMATNGVVHVITNVL
notes: Cloned in pET-29b(+), Ni-NTA purified; also called fas-1 protein
B2: recombinant human βig-h3 protein βig-h3 His-β-b (truncated βig-h3) (ligand)
chain: WYQRKICGKSTVISYECCPGYEKVPGEKGCPAALPLSNLYETLGVVGSTTTQLYTDRTEKLRPEMEGPGSFTIFAPSNEAWASLPAEVLDSLVSNVNIELLNALRYHMVGRRVLTDELKHGMTLTSMYQNSNIQIHHYPNGIVTVNCARLLKADHHATNGVVHLIDKVISTITNNIQQIIEIEDTFETLRAAVAASGLNTMLEGNGQYTLLAPTNEAFEKIPSETLNRILGDPEALRDLLNNHILKSAMCAEAIVAGLSVETLEGTTLEVGCSGDMLTINGKAIISNKDILATNGVIHYIDELLIPDSAKTLFELAAESDVSTAIDLFRQAGLGNHLSGSERLTLLAPLNSVFKDGTPPIDAHTRNLLRNHIIKDQLASKYLYHGQTLETLGGKKLRVFVYRNSLCIENSCIAAHDKRGRYGTLFTMDRVLTPPMGTVMDVLKGDNRFSMLVAAIQSAGLTETLNREGVYTVFAPTNEAFRALPPRERSRLLGDAKELANILKYHIGDEILVSGGIGALVRLKSLQGDKLEVSLKNNVVSVNKEPVAEPDIMATNGVVHVITNVLQPPANRPQERGDELADSALEI
notes: also called βig-h3 His-1-b; Wild-type; not shown: vector-derived residues / His tag from the pET-29 vector (Ni-NTA purified, detected with His-probe-HRP)

How the values were obtained:
αvβ3 integrin [1] = target: T1, αvβ3 integrin (human, UniProt P06756 31-1048; P05106 27-788); test: binding of His-tagged protein to HUVECs in 96-well plates, His-probe-HRP detection, Scatchard analysis
T1 construct: whole, on cells; On human umbilical vein endothelial cells (HUVECs); also called αvβ3 integrin of endothelial cells
T1 sequence (P06756 31-1048, chain 1 of 2): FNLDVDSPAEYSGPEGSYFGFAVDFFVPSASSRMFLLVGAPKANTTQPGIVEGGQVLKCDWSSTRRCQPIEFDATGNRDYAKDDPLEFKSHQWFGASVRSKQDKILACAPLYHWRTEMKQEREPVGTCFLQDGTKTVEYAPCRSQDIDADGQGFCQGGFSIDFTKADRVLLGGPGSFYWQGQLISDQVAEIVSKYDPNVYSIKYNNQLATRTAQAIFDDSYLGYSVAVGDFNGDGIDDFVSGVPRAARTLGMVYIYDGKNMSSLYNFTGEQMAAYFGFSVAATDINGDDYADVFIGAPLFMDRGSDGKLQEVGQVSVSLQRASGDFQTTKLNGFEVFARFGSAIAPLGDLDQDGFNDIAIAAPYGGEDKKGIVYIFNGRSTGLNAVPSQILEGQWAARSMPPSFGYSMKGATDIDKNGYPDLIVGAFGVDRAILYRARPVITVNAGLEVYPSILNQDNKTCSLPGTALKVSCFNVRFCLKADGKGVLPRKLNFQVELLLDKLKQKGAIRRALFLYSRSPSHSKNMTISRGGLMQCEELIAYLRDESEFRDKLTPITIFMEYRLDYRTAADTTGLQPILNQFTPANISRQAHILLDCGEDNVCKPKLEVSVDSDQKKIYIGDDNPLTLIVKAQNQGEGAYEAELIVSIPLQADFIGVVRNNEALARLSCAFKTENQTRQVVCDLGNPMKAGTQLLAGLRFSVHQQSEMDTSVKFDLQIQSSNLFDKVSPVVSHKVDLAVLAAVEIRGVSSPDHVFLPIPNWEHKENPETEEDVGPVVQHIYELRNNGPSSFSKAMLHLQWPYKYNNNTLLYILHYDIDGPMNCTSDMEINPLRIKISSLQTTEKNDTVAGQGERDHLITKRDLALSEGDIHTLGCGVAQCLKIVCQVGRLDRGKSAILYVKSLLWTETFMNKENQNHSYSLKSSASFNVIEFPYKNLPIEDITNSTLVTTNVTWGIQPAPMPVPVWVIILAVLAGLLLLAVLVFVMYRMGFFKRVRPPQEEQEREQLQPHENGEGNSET
T1 sequence (P05106 27-788, chain 2 of 2): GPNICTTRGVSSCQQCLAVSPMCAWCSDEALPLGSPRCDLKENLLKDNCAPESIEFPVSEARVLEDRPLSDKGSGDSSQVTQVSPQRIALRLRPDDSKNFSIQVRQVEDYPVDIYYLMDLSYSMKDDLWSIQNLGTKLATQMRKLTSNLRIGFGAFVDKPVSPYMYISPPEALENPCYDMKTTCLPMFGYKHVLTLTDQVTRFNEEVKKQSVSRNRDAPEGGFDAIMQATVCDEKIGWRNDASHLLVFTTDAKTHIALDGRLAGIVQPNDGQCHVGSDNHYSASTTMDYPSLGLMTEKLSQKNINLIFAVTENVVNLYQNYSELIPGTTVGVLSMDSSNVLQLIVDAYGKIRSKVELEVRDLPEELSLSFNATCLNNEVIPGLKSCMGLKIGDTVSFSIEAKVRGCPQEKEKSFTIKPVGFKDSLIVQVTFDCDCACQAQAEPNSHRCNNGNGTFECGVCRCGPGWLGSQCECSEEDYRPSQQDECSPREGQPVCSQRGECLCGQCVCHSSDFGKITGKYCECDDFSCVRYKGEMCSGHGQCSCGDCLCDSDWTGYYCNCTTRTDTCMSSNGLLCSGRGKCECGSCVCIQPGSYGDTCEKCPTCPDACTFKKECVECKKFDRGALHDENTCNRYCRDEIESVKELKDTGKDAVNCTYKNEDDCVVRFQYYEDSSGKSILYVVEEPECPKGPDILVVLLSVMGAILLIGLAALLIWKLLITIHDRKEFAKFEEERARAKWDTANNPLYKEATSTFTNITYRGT
Method: (§1) HUVECs (3×10⁴ cells/100 μl) were seeded in the 96-well plates and then incubated with increasing concentrations of each protein for 1 hour at room temperature. Cell binding of each protein was detected by His-probe-HRP antibody and quantified by measuring hexosaminidase.

αvβ3 integrin [2] = target: T1, αvβ3 integrin; test: binding to HUVECs, Scatchard analysis (Example 16); reference: fas-1 domain (βig-h3 D-IV)
Method: as §1

Binder | Kd (αvβ3 integrin [1]) [µM] | Kd relative to that of the fas-1 domain of βig-h3 (αvβ3 integrin [2]) [fold less]
B1 | ~30 | –
B2 | ~0.303 | 100
